# Molecular target: the molecule itself
# Test: SEC
protein,measurement,value
"HvJAMM2 (Haloferax volcanii JAMM/MPN+ domain protein, HVO_1016), His6-tagged (natural protein, UniProt D4GVJ3 1-161, looked up) MRLFRSREVVGIAADALDFALEASAETHPNEYMGLLRGEEARRVGVDRDGYVVTDVLIIPGTVSDPYSATVRNDLVPNDFHAVGSIHSHPNGVLRPSDADLDTFGSGRVHIIIGSPYGPDDWEAFDQSGEVRDLDVLDADLSDPESFFDFTQDDIDAELDR",stoichiometry N,2

# — paper PMC3558616 (Molecular microbiology, 2012)
